Results: the supplement of paper PMC9112550, “Optimization of the antimicrobial peptide Bac7 by deep mutational scanning” (BMC Biology, 2022)

Tested on: Escherichia coli TOP10
Experiment: shrunken log2 fold change of peptide-encoding DNA abundance (4.5 h post-induction vs induction); higher = less antimicrobial activity (less host growth inhibition)
Conditions: time post-induction: 4.5 h; library: site-saturation at positions 5, 18, 19, 20
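Also: peptides expressed intracellularly from a pBAD plasmid library in pooled LB shake-flask culture, induced with 0.3% L-arabinose, DNA abundance read by NGS, three biological replicates, DESeq2 with apeglm shrinkage.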

Sequence	shrunken log2 fold change
RRIRSRPPRLPRPRPRPYAKPRP	-0.123
RRIRSRPPRLPRPRPRPYARPRP	-0.351
RRIRSRPPRLPRPRPRPYEEPRP	-0.932
RRIRSRPPRLPRPRPRPYEKPRP	-1.08
RRIRSRPPRLPRPRPRPYHFPRP	-1.8
RRIRSRPPRLPRPRPRPYHSPRP	-0.181
RRIRSRPPRLPRPRPRPYIKPRP	-0.234
RRIRSRPPRLPRPRPRPYIPPRP	-1.28
RRIRSRPPRLPRPRPRPYKAPRP	-0.0488
RRIRSRPPRLPRPRPRPYKLPRP	-0.399
RRIRSRPPRLPRPRPRPYMAPRP	-0.539
RRIRSRPPRLPRPRPRPYMSPRP	-0.355
RRIRSRPPRLPRPRPRPYPCPRP	0.0185
RRIRSRPPRLPRPRPRPYQEPRP	-0.157
RRIRSRPPRLPRPRPRPYQKPRP	-0.122
RRIRSRPPRLPRPRPRPYQPPRP	-0.161
RRIRSRPPRLPRPRPRPYRGPRP	-0.131
RRIRSRPPRLPRPRPRPYSRPRP	-0.00979
RRIRSRPPRLPRPRPRPYSWPRP	-0.244
RRIRSRPPRLPRPRPRPYTKPRP	-0.202
RRIRSRPPRLPRPRPRPYTSPRP	-0.14
RRIRSRPPRLPRPRPRPYVDPRP	-0.594
RRIRSRPPRLPRPRPRPYVEPRP	-0.442
RRIRSRPPRLPRPRPRPYYRPRP	-0.0115
RRIRSRPPRLPRPRPRPYYWPRP	-0.00332

Sequence	shrunken log2 fold change
RRIRTRPPRLPRPRPRPACGPRP	0.282
RRIRTRPPRLPRPRPRPACRPRP	0.206
RRIRTRPPRLPRPRPRPADCPRP	-0.082
RRIRTRPPRLPRPRPRPADMPRP	-0.431
RRIRTRPPRLPRPRPRPAECPRP	-0.112
RRIRTRPPRLPRPRPRPAGPPRP	-0.257
RRIRTRPPRLPRPRPRPAIYPRP	-0.372
RRIRTRPPRLPRPRPRPAKKPRP	0.00555
RRIRTRPPRLPRPRPRPAMWPRP	0.35
RRIRTRPPRLPRPRPRPANDPRP	-0.116
RRIRTRPPRLPRPRPRPAPAPRP	0.463
RRIRTRPPRLPRPRPRPAPQPRP	0.0544
RRIRTRPPRLPRPRPRPAQKPRP	-0.00259
RRIRTRPPRLPRPRPRPASDPRP	-0.141
RRIRTRPPRLPRPRPRPASMPRP	-0.212
RRIRTRPPRLPRPRPRPATQPRP	1.54
RRIRTRPPRLPRPRPRPATRPRP	0.0996
RRIRTRPPRLPRPRPRPATTPRP	-0.181
RRIRTRPPRLPRPRPRPAVKPRP	0.106
RRIRTRPPRLPRPRPRPAWEPRP	0.174
RRIRTRPPRLPRPRPRPAWIPRP	-0.27
RRIRTRPPRLPRPRPRPAWNPRP	-0.0659
RRIRTRPPRLPRPRPRPCCEPRP	-0.105
RRIRTRPPRLPRPRPRPCEFPRP	-0.258
RRIRTRPPRLPRPRPRPCFCPRP	-0.259

Sequence	shrunken log2 fold change
RRIRTRPPRLPRPRPRPCKVPRP	-0.233
RRIRTRPPRLPRPRPRPCLAPRP	-0.307
RRIRTRPPRLPRPRPRPCNHPRP	-0.214
RRIRTRPPRLPRPRPRPCPRPRP	-0.13
RRIRTRPPRLPRPRPRPCPTPRP	0.0552
RRIRTRPPRLPRPRPRPCPWPRP	-0.21
RRIRTRPPRLPRPRPRPCSCPRP	-0.0701
RRIRTRPPRLPRPRPRPCSNPRP	-0.0243
RRIRTRPPRLPRPRPRPCSVPRP	0.0123
RRIRTRPPRLPRPRPRPCTPPRP	-0.214
RRIRTRPPRLPRPRPRPCVLPRP	0.0134
RRIRTRPPRLPRPRPRPCWAPRP	-0.0904
RRIRTRPPRLPRPRPRPCWHPRP	-0.119
RRIRTRPPRLPRPRPRPCYKPRP	-0.06
RRIRTRPPRLPRPRPRPCYSPRP	-0.0481
RRIRTRPPRLPRPRPRPDAGPRP	0.11
RRIRTRPPRLPRPRPRPDCAPRP	0.719
RRIRTRPPRLPRPRPRPDDFPRP	0.0516
RRIRTRPPRLPRPRPRPDEIPRP	-0.235
RRIRTRPPRLPRPRPRPDEQPRP	0.0127
RRIRTRPPRLPRPRPRPDFSPRP	-0.0283
RRIRTRPPRLPRPRPRPDFWPRP	0.413
RRIRTRPPRLPRPRPRPDGKPRP	-0.41
RRIRTRPPRLPRPRPRPDIYPRP	-0.138
RRIRTRPPRLPRPRPRPDKEPRP	-0.0196

Sequence	shrunken log2 fold change
RRIRTRPPRLPRPRPRPDLFPRP	-0.0784
RRIRTRPPRLPRPRPRPDLVPRP	-0.0188
RRIRTRPPRLPRPRPRPDMIPRP	0.00205
RRIRTRPPRLPRPRPRPDMPPRP	-0.064
RRIRTRPPRLPRPRPRPDMYPRP	-0.235
RRIRTRPPRLPRPRPRPDNCPRP	0.00765
RRIRTRPPRLPRPRPRPDNVPRP	-0.881
RRIRTRPPRLPRPRPRPDNYPRP	-0.0497
RRIRTRPPRLPRPRPRPDPLPRP	-0.145
RRIRTRPPRLPRPRPRPDQMPRP	0.0643
RRIRTRPPRLPRPRPRPDRSPRP	-0.287
RRIRTRPPRLPRPRPRPDRVPRP	-0.0605
RRIRTRPPRLPRPRPRPDSRPRP	-0.00822
RRIRTRPPRLPRPRPRPDSVPRP	-0.0144
RRIRTRPPRLPRPRPRPDTMPRP	0.0881
RRIRTRPPRLPRPRPRPDVYPRP	0.00573
RRIRTRPPRLPRPRPRPDWIPRP	-0.0498
RRIRTRPPRLPRPRPRPEADPRP	0.0868
RRIRTRPPRLPRPRPRPEASPRP	0.00709
RRIRTRPPRLPRPRPRPEAYPRP	-0.12
RRIRTRPPRLPRPRPRPECHPRP	-0.247
RRIRTRPPRLPRPRPRPECSPRP	0.0479
RRIRTRPPRLPRPRPRPECVPRP	0.148
RRIRTRPPRLPRPRPRPEDMPRP	-0.00975
RRIRTRPPRLPRPRPRPEDPPRP	-0.00217

Sequence	shrunken log2 fold change
RRIRTRPPRLPRPRPRPEFFPRP	-0.0853
RRIRTRPPRLPRPRPRPEFSPRP	0.00789
RRIRTRPPRLPRPRPRPEGAPRP	0.783
RRIRTRPPRLPRPRPRPEIAPRP	-0.11
RRIRTRPPRLPRPRPRPEKDPRP	-0.271
RRIRTRPPRLPRPRPRPEKNPRP	0.0495
RRIRTRPPRLPRPRPRPEKTPRP	0.051
RRIRTRPPRLPRPRPRPEMTPRP	0.0523
RRIRTRPPRLPRPRPRPENCPRP	0.072
RRIRTRPPRLPRPRPRPENEPRP	0.138
RRIRTRPPRLPRPRPRPENNPRP	-0.267
RRIRTRPPRLPRPRPRPEPRPRP	0.482
RRIRTRPPRLPRPRPRPEQEPRP	-0.0113
RRIRTRPPRLPRPRPRPEQIPRP	0.126
RRIRTRPPRLPRPRPRPERQPRP	-0.0252
RRIRTRPPRLPRPRPRPETHPRP	0.179
RRIRTRPPRLPRPRPRPEVCPRP	0.212
RRIRTRPPRLPRPRPRPEVKPRP	0.174
RRIRTRPPRLPRPRPRPEVLPRP	-0.0153
RRIRTRPPRLPRPRPRPFAVPRP	-0.0779
RRIRTRPPRLPRPRPRPFCNPRP	0.0687
RRIRTRPPRLPRPRPRPFCYPRP	-0.24
RRIRTRPPRLPRPRPRPFDAPRP	-0.343
RRIRTRPPRLPRPRPRPFDLPRP	-0.29
RRIRTRPPRLPRPRPRPFEYPRP	-0.0571

Sequence	shrunken log2 fold change
RRIRTRPPRLPRPRPRPFHEPRP	-0.126
RRIRTRPPRLPRPRPRPFHGPRP	-0.0212
RRIRTRPPRLPRPRPRPFHTPRP	-0.932
RRIRTRPPRLPRPRPRPFKYPRP	-0.114
RRIRTRPPRLPRPRPRPFLGPRP	-0.0873
RRIRTRPPRLPRPRPRPFLQPRP	0.0237
RRIRTRPPRLPRPRPRPFMCPRP	-0.126
RRIRTRPPRLPRPRPRPFPNPRP	-0.105
RRIRTRPPRLPRPRPRPFQHPRP	-0.214
RRIRTRPPRLPRPRPRPFRDPRP	-0.205
RRIRTRPPRLPRPRPRPFRRPRP	-0.0209
RRIRTRPPRLPRPRPRPFSVPRP	0.0234
RRIRTRPPRLPRPRPRPFVCPRP	-0.374
RRIRTRPPRLPRPRPRPFVYPRP	-0.639
RRIRTRPPRLPRPRPRPGAMPRP	0.144
RRIRTRPPRLPRPRPRPGDQPRP	-0.0663
RRIRTRPPRLPRPRPRPGEGPRP	0.177
RRIRTRPPRLPRPRPRPGETPRP	-0.105
RRIRTRPPRLPRPRPRPGFSPRP	-0.016
RRIRTRPPRLPRPRPRPGGCPRP	0.26
RRIRTRPPRLPRPRPRPGGFPRP	0.413
RRIRTRPPRLPRPRPRPGGSPRP	0.135
RRIRTRPPRLPRPRPRPGICPRP	-0.0258
RRIRTRPPRLPRPRPRPGIMPRP	-0.452
RRIRTRPPRLPRPRPRPGLNPRP	-0.213
